In patent US20240352133A1 one finds Kd, koff and kon data, which are given here for twelve molecules.

Where a chain is given by its changes, count along the chain named.

The assay deals with Recombinant human his-tagged IGF 1R extracellular domain protein (human) (UniProt P08069). The assay is described as follows: SPR, captured antibody, pH 7.4. For orientation: Surface plasmon resonance follows binding to a sensor surface in real time, without labels.

B1: VRDN-03089 (antibody, V domains shown)
VH: QVQLVESGGGVVQPGRSLRLSCAASGFTFSSYGMHWVRQAPGKGLEWVAIIWFDGSSTYYADSVRGRFTISRDNSKNTLYLQMNSLRAEDTAVYYCARELGRRYFDLWGRGTLVTVSS
VL: EIVLTQSPATLSLSPGERATLSCRASQSVSSSYLAWYQQKPGQAPRLLIYDASKRATGIPARFSGSGSGTDFTLTISSLEPEDFAVYYCQQRSKWPPWTFGQGTKVEIK
What is called Kd is the free concentration of one partner at which half of the binding sites on the other are occupied at equilibrium, for simple one-to-one binding. As a reminder, the koff is the first-order rate constant of dissociation. Broadly, the kon is a measure of how fast the partners come together. For the molecule B1, the dissociation constant Kd was 236 nM, the off-rate (koff) is 0.0173 s⁻¹ and the kon came to 73300 M⁻¹ s⁻¹.

B2: VRDN-03116 (antibody, V domains shown)
VH: B1 VH with Q1E, S31D, G33T, T58K, A61P, D62G, R65K, L107I
VL: EIVMTQSPATLSVSPGERATLSCRASQGVSSYLAWYQQKPGQAPRLLIYGASTRATGIPARFSGSGSGTEFTLTISSLQSEDFAVYYCQQRSRWPPWTFGQGTKLEIK
Regarding B2, the Kd came out at 4.3 nM, the koff was found to be 0.00091 s⁻¹ and the on-rate (kon) came out at 212000 M⁻¹ s⁻¹.

B3: VRDN-03123 (antibody, V domains shown)
VH: B1 VH with Q1E, S30D, S31D, G33A, T58K, R65K, L107I, R110Q
VL: B2 VL
Consider B3, for which the Kd came out at 1.43 nM, the koff worked out at 9.19e-05 s⁻¹ and the kon is 64200 M⁻¹ s⁻¹.

B4: VRDN-03091 (antibody, V domains shown)
VH: B1 VH
VL: B1 VL with R24G
Take B4: the Kd is 11 nM, the koff was found to be 0.00902 s⁻¹ and the kon was found to be 819000 M⁻¹ s⁻¹.

B5: VRDN-03117 (antibody, V domains shown)
VH: B1 VH with Q1E, G33S, S57N, T58K, R65K, G66S, L107I, R110Q
VL: B2 VL
Turning to B5, the dissociation constant Kd came out at 8.1 nM, the koff was determined as 0.00391 s⁻¹ and the kon came out at 483000 M⁻¹ s⁻¹.

B6: VRDN-03125 (antibody, V domains shown)
VH: B1 VH with Q1E, S30D, S31D, G33A, I50V, F53Y, T58K, R65K, L107I, R110Q
VL: B2 VL
As for B6, the Kd came out at 8.61 nM, the dissociation rate constant (koff) is 0.00292 s⁻¹ and the kon was determined as 339000 M⁻¹ s⁻¹.

B7: VRDN-03124 (antibody, V domains shown)
VH: B1 VH with Q1E, S30D, S31D, G33T, T58K, R65K, L107I, R110Q
VL: B2 VL
For the molecule B7, the Kd worked out at 1.84 nM, the dissociation rate constant (koff) was determined as 0.000157 s⁻¹ and the association rate constant (kon) was 85200 M⁻¹ s⁻¹.

B8: VRDN-03121 (antibody, V domains shown)
VH: B1 VH with Q1E, G33S, I50V, F53Y, T58K, R65K, G66S, L107I
VL: B2 VL
For B8, the Kd was found to be 4.27 nM, the off-rate (koff) amounted to 0.000486 s⁻¹ and the kon came out at 114000 M⁻¹ s⁻¹.

B9: VRDN-03120 (antibody, V domains shown)
VH: B1 VH with Q1E, G33S, I50V, F53Y, T58K, R65K, L107I, R110Q
VL: B2 VL
For B9, the Kd stood at 3.96 nM, the koff was determined as 0.00128 s⁻¹ and the on-rate constant (kon) worked out at 322000 M⁻¹ s⁻¹.

B10: VRDN-03119 (antibody, V domains shown)
VH: B1 VH with Q1E, G33S, S57E, T58K, A61V, R65K, G66S, L107I, R110Q
VL: B2 VL
For the molecule B10, the equilibrium dissociation constant (Kd) was found to be 9.78 nM, the off-rate constant (koff) came out at 0.00153 s⁻¹ and the association rate constant (kon) came out at 157000 M⁻¹ s⁻¹.

B11: VRDN-03118 (antibody, V domains shown)
VH: B1 VH with Q1E, G33S, T58K, A61V, R65K, G66S, L107I, R110Q
VL: B2 VL
Take B11: the equilibrium dissociation constant (Kd) turned out to be 1.08 nM, the koff turned out to be 0.000107 s⁻¹ and the kon is 98600 M⁻¹ s⁻¹.

B12: VRDN-03122 (antibody, V domains shown)
VH: B1 VH with Q1E, G33S, I50V, F53Y, T58K, R65K, G66S, L107I, R110Q
VL: B2 VL
In the case of B12, the Kd is 4.09 nM, the off-rate constant (koff) was found to be 0.000455 s⁻¹ and the association rate constant (kon) was 111000 M⁻¹ s⁻¹.
